Key:
[1] = target: Pseudomonas phage LUZ24 small terminase subunit (TerS) (Pseudomonas phage LUZ24); assay: AUC; sedimentation velocity; TerS from heparin peak 2 (850 mM NaCl); 40 000 rpm, 6 °C; 20 mM Tris-HCl pH 7.5, 150 mM NaCl, 3 mM DTT, 2.5% glycerol; 1.3-2.2 mg/ml
[2] = target: Pseudomonas phage NV1 small terminase subunit (TerS) (Pseudomonas phage NV1); assay: crystal structure; TerS from heparin peak 2 at 7.5 mg/ml, vapor diffusion hanging drop; PaP3 at 3.0 Å, NV1 at 3.95 Å
[3] = target: Pseudomonas phage NV1 small terminase subunit (TerS) (Pseudomonas phage NV1); assay: SEC-SAXS; TerS from heparin peak 2; PaP3 at 1.7 mg/ml, NV1 at 2.0 mg/ml; Superdex 200 10/300 GL; 20 mM Tris-HCl pH 8.0, 150 mM NaCl, 2.5% glycerol, 0.5 mM TCEP; 4 °C
[4] = target: Pseudomonas phage NV1 small terminase subunit (TerS) (Pseudomonas phage NV1); assay: AUC; sedimentation velocity; TerS from heparin peak 2 (850 mM NaCl); 40 000 rpm, 6 °C; 20 mM Tris-HCl pH 7.5, 150 mM NaCl, 3 mM DTT, 2.5% glycerol; 1.3-2.2 mg/ml
[5] = target: Pseudomonas phage PaP3 small terminase subunit (TerS) (Pseudomonas phage PaP3); assay: crystal structure; TerS from heparin peak 2 at 7.5 mg/ml, vapor diffusion hanging drop; PaP3 at 3.0 Å, NV1 at 3.95 Å
[6] = target: Pseudomonas phage PaP3 small terminase subunit (TerS) (Pseudomonas phage PaP3); assay: SEC-SAXS; TerS from heparin peak 2; PaP3 at 1.7 mg/ml, NV1 at 2.0 mg/ml; Superdex 200 10/300 GL; 20 mM Tris-HCl pH 8.0, 150 mM NaCl, 2.5% glycerol, 0.5 mM TCEP; 4 °C
[7] = target: Pseudomonas phage PaP3 small terminase subunit (TerS) (Pseudomonas phage PaP3); assay: AUC; sedimentation velocity; TerS from heparin peak 2 (850 mM NaCl); 40 000 rpm, 6 °C; 20 mM Tris-HCl pH 7.5, 150 mM NaCl, 3 mM DTT, 2.5% glycerol; 1.3-2.2 mg/ml
[8] = target: T1, PaP3 TerS WT (small terminase, peak 2) (Pseudomonas phage PaP3, UniProt Q8H9R5 1-152); assay: EMSA; agarose gel, 0-40 uM TerS; EMSA: incubation 37 C 30 min (binding buffer not stated; proteins in GF buffer 20 mM Tris-HCl pH 7.5, 150 mM NaCl, 5 mM bME, 2.5% glycerol); 1% agarose or 4-16% acrylamide gel, 0.5x TBE, 4 C; conditions: protein: recombinant; tags: GST removed by PreScission protease; chain copies: 9; label: 5' Cy3 on both strands; blunt
T1 sequence: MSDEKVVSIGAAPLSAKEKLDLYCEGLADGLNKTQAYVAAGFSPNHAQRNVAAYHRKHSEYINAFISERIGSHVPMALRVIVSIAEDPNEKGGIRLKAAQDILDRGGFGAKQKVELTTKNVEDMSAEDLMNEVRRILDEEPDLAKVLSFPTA

Pseudomonas phage LUZ24 small terminase subunit (TerS) (natural protein)
stoichiometry N [1]: 9 mer

Pseudomonas phage NV1 small terminase subunit (TerS) (natural protein)
stoichiometry N [2]: 9 | stoichiometry N [3]: 9 | stoichiometry N [4]: 9 mer

Pseudomonas phage PaP3 small terminase subunit (TerS) (natural protein)
stoichiometry N [5]: 9 | stoichiometry N [6]: 9 | stoichiometry N [7]: 9 mer

B1: Cy3-cos (dsDNA)
DNA 1: GCCGGCCCCTTTCCGCGTTA
DNA 2: TAACGCGGAAAGGGGCCGGC
binding result [8]: binds

— article PMC7672466, “Biophysical analysis of Pseudomonas-phage PaP3 small terminase suggests a mechanism for sequence-specific DNA-binding by lateral interdigitation”
